Laboratory results reported in patent publication US20130247232A1.

Key:
[1] = target: MUC5AC (NPC-1 antigen) expressed by Colo-205 human colorectal tumor cells (human) (UniProt P98088); assay: flow cytometry on Colo-205 cells
[2] = target: MUC5AC (NPC-1 antigen) expressed by Colo-205 human colorectal tumor cells (human) (UniProt P98088); assay: FACS, 2 µg/ml isotype control antibody-FITC on Colo-205 cells
[3] = target: MUC5AC (NPC-1 antigen) expressed by LS174T human colorectal tumor cells (human) (UniProt P98088); assay: FACS, 2 µg/ml isotype control antibody-FITC on LS174 cells
Sequence of MUC5AC (NPC-1 antigen) expressed by LS174T human colorectal tumor cells (human) (P98088 other isoform, or with tags, fused parts or gaps limits assumed, change not shown): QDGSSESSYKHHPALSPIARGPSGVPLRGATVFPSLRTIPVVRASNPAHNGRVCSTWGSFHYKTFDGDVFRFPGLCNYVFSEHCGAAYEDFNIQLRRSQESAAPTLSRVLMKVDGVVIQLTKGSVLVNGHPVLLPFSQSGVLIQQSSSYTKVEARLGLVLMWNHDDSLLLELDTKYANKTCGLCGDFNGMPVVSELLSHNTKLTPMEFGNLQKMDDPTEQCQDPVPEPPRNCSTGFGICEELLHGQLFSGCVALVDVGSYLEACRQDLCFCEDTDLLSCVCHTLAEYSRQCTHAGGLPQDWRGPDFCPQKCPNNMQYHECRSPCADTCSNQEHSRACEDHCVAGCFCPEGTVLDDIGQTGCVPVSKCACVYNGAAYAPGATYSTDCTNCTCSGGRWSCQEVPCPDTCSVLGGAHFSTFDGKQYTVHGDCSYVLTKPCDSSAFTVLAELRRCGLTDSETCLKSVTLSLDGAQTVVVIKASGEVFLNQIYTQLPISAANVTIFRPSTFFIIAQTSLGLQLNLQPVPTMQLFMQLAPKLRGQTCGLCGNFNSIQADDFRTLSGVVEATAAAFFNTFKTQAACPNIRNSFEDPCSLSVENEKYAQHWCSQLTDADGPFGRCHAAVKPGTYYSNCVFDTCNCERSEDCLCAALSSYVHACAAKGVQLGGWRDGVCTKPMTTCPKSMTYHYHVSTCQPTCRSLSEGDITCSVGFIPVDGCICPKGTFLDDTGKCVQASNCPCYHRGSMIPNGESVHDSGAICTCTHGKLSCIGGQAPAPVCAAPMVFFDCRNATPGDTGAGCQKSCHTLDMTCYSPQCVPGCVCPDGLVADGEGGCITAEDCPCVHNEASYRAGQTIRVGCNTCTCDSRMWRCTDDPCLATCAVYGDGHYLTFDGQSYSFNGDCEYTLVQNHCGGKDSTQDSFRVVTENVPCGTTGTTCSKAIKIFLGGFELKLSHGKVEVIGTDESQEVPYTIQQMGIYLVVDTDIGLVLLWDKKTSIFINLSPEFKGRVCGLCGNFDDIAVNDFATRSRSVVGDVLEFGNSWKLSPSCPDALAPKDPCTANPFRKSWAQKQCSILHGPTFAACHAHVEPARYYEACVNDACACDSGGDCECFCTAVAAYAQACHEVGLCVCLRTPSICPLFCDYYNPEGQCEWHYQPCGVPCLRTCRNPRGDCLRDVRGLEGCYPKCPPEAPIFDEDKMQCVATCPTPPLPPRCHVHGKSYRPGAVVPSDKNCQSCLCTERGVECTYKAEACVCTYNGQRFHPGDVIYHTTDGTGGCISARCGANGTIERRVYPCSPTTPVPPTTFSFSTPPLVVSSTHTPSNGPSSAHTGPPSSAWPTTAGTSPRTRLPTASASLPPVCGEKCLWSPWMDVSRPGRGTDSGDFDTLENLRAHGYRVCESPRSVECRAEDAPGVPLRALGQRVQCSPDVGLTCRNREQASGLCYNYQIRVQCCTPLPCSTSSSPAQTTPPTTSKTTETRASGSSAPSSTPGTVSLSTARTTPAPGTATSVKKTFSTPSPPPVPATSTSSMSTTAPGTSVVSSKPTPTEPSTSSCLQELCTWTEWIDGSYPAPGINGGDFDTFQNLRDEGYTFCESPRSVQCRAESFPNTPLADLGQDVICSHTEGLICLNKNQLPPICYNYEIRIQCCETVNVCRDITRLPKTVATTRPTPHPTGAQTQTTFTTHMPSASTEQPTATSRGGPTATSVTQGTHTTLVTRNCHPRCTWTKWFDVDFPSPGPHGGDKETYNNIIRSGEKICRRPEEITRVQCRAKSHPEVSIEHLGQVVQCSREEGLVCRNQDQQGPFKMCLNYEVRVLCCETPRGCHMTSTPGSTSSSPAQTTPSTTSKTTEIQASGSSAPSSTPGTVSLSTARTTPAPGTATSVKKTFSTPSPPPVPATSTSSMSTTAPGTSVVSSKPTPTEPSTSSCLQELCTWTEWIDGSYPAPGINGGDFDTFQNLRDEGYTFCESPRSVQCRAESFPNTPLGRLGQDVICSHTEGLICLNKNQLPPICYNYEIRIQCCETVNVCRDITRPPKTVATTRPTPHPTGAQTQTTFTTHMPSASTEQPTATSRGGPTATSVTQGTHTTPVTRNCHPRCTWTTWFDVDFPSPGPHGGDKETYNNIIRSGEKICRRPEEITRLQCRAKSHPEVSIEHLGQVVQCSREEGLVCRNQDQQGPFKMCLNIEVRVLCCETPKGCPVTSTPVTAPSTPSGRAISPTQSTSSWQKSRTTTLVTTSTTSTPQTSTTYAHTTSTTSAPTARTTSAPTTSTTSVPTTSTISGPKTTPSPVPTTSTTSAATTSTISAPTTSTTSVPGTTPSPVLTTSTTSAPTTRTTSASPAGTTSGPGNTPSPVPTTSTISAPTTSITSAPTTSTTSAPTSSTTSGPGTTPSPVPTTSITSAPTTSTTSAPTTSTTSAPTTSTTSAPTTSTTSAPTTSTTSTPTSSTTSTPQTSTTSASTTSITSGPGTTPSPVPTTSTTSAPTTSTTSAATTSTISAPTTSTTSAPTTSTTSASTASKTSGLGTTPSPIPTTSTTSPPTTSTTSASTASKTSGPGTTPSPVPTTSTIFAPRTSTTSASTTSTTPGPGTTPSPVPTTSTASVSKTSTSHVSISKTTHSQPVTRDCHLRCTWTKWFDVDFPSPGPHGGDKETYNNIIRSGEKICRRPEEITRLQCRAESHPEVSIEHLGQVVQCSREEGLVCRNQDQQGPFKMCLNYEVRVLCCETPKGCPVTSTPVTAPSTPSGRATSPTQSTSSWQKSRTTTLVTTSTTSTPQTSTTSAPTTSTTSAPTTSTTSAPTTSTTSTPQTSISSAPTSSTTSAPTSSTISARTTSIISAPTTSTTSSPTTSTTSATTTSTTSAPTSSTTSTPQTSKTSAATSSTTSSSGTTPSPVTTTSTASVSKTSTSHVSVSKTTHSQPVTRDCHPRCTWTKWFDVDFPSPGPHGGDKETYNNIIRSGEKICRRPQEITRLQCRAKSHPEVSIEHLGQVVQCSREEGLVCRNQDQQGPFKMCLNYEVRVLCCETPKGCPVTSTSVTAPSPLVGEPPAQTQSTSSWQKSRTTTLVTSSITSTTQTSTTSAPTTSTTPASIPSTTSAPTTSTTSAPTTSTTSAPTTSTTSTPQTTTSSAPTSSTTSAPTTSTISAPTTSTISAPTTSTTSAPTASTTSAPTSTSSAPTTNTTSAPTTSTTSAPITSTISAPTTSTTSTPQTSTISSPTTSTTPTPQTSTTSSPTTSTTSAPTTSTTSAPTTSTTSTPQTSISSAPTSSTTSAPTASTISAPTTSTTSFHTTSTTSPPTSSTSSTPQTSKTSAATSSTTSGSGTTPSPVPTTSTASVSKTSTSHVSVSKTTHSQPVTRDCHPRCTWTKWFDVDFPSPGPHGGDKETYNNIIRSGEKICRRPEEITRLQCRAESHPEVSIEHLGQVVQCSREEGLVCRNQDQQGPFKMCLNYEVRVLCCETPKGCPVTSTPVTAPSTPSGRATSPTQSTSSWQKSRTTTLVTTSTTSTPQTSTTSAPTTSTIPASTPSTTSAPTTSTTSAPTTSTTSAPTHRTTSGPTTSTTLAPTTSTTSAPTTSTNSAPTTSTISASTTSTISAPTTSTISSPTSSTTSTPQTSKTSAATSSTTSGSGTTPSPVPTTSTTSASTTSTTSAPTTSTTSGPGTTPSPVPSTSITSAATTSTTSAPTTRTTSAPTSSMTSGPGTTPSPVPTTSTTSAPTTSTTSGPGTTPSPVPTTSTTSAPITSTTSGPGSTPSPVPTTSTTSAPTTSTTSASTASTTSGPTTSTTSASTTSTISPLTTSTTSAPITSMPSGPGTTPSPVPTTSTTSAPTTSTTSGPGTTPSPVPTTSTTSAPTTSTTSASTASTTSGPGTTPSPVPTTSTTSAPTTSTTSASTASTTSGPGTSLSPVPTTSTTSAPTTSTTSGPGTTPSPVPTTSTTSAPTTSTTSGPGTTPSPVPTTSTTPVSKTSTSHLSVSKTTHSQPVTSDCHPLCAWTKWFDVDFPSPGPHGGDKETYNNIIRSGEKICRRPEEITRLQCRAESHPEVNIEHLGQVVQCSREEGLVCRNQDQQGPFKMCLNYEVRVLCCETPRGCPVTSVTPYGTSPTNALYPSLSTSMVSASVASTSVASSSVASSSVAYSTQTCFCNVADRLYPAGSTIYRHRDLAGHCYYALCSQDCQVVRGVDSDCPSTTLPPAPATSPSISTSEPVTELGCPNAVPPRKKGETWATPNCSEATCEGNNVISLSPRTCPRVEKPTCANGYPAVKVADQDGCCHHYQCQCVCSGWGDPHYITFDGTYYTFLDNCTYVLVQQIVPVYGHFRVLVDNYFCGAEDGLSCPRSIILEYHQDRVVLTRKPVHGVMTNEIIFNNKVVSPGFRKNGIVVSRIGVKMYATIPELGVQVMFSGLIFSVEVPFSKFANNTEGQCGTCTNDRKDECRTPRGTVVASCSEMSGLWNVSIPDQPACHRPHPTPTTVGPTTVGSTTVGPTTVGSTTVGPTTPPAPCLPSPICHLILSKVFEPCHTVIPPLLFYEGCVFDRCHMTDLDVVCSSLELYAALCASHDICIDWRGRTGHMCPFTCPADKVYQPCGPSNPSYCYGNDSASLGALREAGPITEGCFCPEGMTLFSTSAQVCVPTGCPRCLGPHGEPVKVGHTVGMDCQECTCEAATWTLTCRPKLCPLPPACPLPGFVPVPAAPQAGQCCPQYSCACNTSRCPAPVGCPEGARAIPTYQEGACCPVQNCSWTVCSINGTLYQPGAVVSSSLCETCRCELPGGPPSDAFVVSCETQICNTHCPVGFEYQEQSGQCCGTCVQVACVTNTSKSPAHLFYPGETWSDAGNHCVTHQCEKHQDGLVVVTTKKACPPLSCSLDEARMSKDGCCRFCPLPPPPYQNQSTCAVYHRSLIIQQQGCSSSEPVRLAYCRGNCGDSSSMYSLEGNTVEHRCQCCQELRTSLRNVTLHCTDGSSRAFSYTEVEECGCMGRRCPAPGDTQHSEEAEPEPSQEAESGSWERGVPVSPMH

[4] = target: MUC5AC (NPC-1 antigen) expressed by SW480 human colorectal tumor cells (human) (UniProt P98088); assay: FACS, 2 µg/ml isotype control antibody-FITC on SW480 cells
[5] = target: MUC5AC (NPC-1 antigen) expressed by SW480 human colorectal tumor cells (human) (UniProt P98088); assay: flow cytometry on SW480 cells
[6] = target: MUC5AC (NPC-1 antigen) expressed by CFPAC-1 human pancreatic tumor cells (human) (UniProt P98088); assay: flow cytometry on CFPAC-1 cells
[7] = target: MUC5AC (NPC-1 antigen) expressed by LS174T human colorectal tumor cells (human) (UniProt P98088); assay: flow cytometry on LS174T cells
[8] = target: MUC5AC (NPC-1 antigen) expressed by CFPAC-1 human pancreatic tumor cells (human) (UniProt P98088); assay: FACS, 2 µg/ml isotype control antibody-FITC on CFPAC cells

mfi [1]: 34 mfi | Percent positive [2]: 2.33% | Percent positive [3]: 3.85% | Percent positive [4]: 3.38% | mfi [5]: 56 mfi | mfi [6]: 25 mfi | mfi [7]: 35 mfi | Percent positive [8]: 1.79%
Substance: Isotype control antibody
